Reference: publication PMC3166883
pKd: −log10 of the molar value.

Legend:
[1] = molecular target: MART-1/Melan-A (anchor-modified decamer, modified at position 2) peptide on HLA-A*02:01 (human); assay: SPR
[2] = molecular target: MART-1/Melan-A peptide on HLA-A*02:01 (human); assay: SPR

With DMF4 as the substance, how does the pKd [1] read?
Its pKd is 4.54.

With DMF5 as the substance, how does the pKd [1] read?
The pKd was 5.22.

And the pKd [2]?
Its pKd is 4.40.
